In publication PMC6381839 one finds stoichiometry N data, which are given here for one substance.

The assay deals with GoxA (glycine oxidase) from Pseudoalteromonas luteoviolacea, glycine-soaked (Gly-GoxA) (Pseudoalteromonas luteoviolacea). The assay is described as follows: crystal structure.

What is called stoichiometry N is the number of molecules, sites or subunits per partner or assembly. In the case of “GoxA (glycine oxidase) from Pseudoalteromonas luteoviolacea, glycine-soaked (Gly-GoxA) (enzyme)”, the stoichiometry N is 4.
